# Assay results: patent US11419948B2, “Functionalized microgels with fibrin binding elements” (Georgia Tech Research Corporation, priority 2013, dated 2022)
# T1: fibrinogen (Homo sapiens, UniProt P02671+P02675+P02679)
# T1 sequence (P02671 20-629 limits assumed): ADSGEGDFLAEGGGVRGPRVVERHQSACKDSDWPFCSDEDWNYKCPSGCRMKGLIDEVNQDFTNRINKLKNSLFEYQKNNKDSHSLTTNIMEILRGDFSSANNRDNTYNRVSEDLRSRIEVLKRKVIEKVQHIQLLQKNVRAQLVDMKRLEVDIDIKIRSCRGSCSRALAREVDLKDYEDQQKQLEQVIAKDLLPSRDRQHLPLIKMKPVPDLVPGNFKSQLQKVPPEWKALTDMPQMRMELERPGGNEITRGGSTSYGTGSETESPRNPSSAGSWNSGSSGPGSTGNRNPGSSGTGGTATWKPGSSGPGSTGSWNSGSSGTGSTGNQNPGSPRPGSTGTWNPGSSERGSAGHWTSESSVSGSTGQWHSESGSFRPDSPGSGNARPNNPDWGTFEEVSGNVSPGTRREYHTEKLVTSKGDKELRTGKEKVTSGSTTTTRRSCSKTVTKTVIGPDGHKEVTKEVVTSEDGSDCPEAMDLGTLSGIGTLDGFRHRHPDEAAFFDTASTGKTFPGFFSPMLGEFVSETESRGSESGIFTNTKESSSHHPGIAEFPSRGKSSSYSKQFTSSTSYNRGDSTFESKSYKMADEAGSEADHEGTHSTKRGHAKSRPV
# T1 sequence (P02675 31-491): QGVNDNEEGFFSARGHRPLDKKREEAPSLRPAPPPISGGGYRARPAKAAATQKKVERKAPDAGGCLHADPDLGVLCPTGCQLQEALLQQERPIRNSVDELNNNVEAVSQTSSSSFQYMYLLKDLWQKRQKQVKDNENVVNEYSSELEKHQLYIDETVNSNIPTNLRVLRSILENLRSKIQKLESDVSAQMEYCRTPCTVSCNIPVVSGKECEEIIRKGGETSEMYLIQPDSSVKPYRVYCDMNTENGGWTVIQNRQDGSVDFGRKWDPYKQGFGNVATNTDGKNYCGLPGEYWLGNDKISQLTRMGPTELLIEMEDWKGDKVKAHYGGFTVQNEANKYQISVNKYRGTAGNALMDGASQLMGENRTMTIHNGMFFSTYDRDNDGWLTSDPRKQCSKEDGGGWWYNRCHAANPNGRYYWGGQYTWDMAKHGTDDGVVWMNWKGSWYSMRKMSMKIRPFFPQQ
# T1 sequence (P02679 27-453): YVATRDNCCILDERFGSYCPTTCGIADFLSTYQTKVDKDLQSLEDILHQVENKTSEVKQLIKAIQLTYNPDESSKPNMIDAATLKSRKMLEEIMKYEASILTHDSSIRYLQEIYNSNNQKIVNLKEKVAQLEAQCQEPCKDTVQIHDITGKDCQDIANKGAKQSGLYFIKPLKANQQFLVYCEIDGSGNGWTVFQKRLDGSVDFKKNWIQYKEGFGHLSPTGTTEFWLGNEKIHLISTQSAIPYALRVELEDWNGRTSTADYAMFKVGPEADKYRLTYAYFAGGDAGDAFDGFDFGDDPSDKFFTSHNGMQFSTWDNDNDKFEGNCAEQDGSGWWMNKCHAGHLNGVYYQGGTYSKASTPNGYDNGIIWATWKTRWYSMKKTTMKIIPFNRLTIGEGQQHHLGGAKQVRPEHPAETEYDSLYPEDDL
# B1: H6: fibrin-specific human sdFv clone from phage biopanning, SEQ ID NO: 1 (protein)
# VHH: QVQLLESGGGLVQPGGSLRLSCAASGDRFTHNDMGWVRQAPGKGLEWVSTIPTTDGSTYYADSVKGRFTISRDNSKSTLYLQMNSLRAEDTAVYYCATGYMWKAPAYVKYWGQGTLVTVSSAAAEQKLISEEDLNSAAHYTDIG
# Target: T1, fibrinogen
# Assay: ELISAs of H6 binding to fibrinogen in various states of unfolding
# Description: Characterization of H6 binding to fibrin was determined through a series of experiments designed to test the ability of H6 to bind fibrinogen in various states of unfolding.
# In the first experiment ELISAs, as described previously, were performed comparing the ability of H6 to bind fibrinogen that was either passively adsorbed to a glass surface or immobilized to a glass surface, the assumption being that fibrinogen exists in a more unfolded state when adsorbed in comparison to when its immobilized on a surface.
# This experiment was repeated comparing the ability of H6 to bind fibrinogen passively adsorbed to a plastic surface after having been heat-denatured, or not, with the assumption being that heat-denatured fibrinogen exists in a more unfolded state than that of fibrinogen that was not heat-denatured.
# Finally, this experiment was repeated to compare the ability of H6 to bind fibrinogen that was passively adsorbed after no treatment, heat denaturing, heat denaturing plus reduction of sulfide bonds, or just reduction of sulfide bonds. The assumption is that reduction of sulfide bonds within a fibrinogen molecule in addition to heat denaturing result in an even greater extent of molecular unfolding than compared to heat denaturing alone.
molecule,measurement,setting,value
B1,binding to fibrinogen on glass surface,adsorbed and immobilized fibrinogen,weak
same,binding to immobilized versus adsorbed fibrinogen,glass surface,dose-dependent decrease in binding
same,binding to fibrinogen adsorbed to plastic surface,heat-denatured or not,weak binding
same,binding to fibrinogen versus degree of unfolding,"no treatment, heat denaturing, reduction of sulfide bonds, or both",positively correlated to the degree of unfolding
same,binding to heat-denatured versus un-denatured fibrinogen,plastic surface,dose-dependent enhanced ability
